{
  "source": "paper doi:10.1101/172908",
  "about": "(bioRxiv, 2017)",
  "target": "the molecule itself",
  "assay": "cryo-EM structure",
  "data": [
    {"protein": "rat Kir6.2 (natural protein) MLSRKGIIPEEYVLTRLAEDPTEPRYRTRERRARFVSKKGNCNVAHKNIREQGRFLQDVFTTLVDLKWPHTLLIFTMSFLCSWLLFAMVWWLIAFAHGDLAPGEGTNVPCVTSIHSFSSAFLFSIEVQVTIGFGGRMVTEECPLAILILIVQNIVGLMINAIMLGCIFMKTAQAHRRAETLIFSKHAVITLRHGRLCFMLRVGDLRKSMIISATIHMQVVRKTTSPEGEVVPLHQVDIPMENGVGGNSIFLVAPLIIYHVIDSNSPLYDLAPSDLHHHQDLEIIVILEGVVETTGITTQARTSYLADEILWGQRFVPIVAEEDGRYSVDYSKFGNTVKVPTPLCTARQLDEDRSLLDALTLASSRGPLRKRSVAVAKAKPKFSISPDSLS", "values": [
      {"measurement": "stoichiometry N", "result": 4}
    ]}
  ]
}
